Reference: paper PMC5373536, “Proteomic analysis of organic sulfur compound utilisation in Advenella mimigardefordensis strain DPN7^T” (PLoS ONE, 2017)

Substrate: O=C(O)CC(S)C(=O)O
Experiment: oxygen consumption, oxygen electrode, nonlinear regression
Format: biochemical, Advenella mimigardefordensis
Details: 100 mM Tris/HCl pH 7.4, 0.05-75 mM MS, 2 ug/ml enzyme, O2 co-substrate

B1: MsdoDPN7 (MsdoAm; MIM_c37420) (Advenella mimigardefordensis DPN7) (protein)
chain: MTSKQDKQVAIRQFIDITKDIDSAQLDREKLAKIRDALVGIAAHKEWWGQDLYPAPTGDELQARYLIHAEPDNSYALYLNVMKPGKKIVPHNHTTWACIAAVEGVESNYLYERTDDGSVPGHATVVQTGMQAVEPGHGIALMPDDIHAVRIEDDNIRHLHMYGRALETLTERMAFDTSNNTCKIMDVGVKTQRSKG
notes: full gene in pET-19b (NdeI/XhoI), N-terminal His tag, expressed in E. coli BL21(DE3) pLysS, Ni-NTA purified; tag removal not mentioned
For B1, the Km was 200 µM.
